From patent US20140179593A1 (published 2014) come the findings set out here.

Positions of bridges follow the written chain, without caps; N, C: chain ends. Non-standard residues stand in square brackets, D forms with d. *: point of attachment. S5 = C=CCCC[C@](C)(N)C(=O)O; For = O=C*

The target of test [1] is T1, hE1 for Nedd8 (APPBP1-UBA3, NAE1-UBA3) (Homo sapiens, UniProt Q13564 18-534; Q8TBC4 22-463, limits assumed).
T1 construct: Heterodimer of NAE1 and UBA3, expressed in E. coli as described previously
T1 sequence 1: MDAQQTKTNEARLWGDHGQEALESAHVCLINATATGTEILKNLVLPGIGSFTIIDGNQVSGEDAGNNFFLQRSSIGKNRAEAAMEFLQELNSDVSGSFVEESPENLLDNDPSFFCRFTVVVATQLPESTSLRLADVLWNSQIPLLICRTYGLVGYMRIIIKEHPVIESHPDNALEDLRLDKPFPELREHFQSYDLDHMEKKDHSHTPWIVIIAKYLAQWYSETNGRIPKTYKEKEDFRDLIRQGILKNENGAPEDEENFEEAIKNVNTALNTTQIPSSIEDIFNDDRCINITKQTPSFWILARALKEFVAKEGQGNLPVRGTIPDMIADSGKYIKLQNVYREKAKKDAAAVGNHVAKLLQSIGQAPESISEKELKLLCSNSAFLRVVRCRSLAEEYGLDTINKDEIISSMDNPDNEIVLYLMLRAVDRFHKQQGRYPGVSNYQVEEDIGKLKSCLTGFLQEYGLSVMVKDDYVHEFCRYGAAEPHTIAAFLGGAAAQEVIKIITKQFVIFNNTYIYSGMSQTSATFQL
T1 sequence 2: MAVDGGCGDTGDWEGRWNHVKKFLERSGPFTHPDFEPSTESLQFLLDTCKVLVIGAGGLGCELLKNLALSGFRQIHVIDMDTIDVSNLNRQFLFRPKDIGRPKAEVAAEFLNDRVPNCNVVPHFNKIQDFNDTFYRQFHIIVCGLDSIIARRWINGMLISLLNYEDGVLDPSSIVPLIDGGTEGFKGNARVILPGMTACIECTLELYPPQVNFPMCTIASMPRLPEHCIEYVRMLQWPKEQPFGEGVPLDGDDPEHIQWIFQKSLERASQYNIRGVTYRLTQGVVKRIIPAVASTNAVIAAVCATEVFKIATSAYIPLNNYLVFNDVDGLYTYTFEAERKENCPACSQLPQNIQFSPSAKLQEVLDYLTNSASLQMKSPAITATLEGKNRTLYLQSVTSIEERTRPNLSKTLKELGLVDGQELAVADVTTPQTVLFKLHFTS
Briefly: not named in the sentence (ITC in Table 25). As to the method: (§1) Specifically, Phe5 and Gln9 were replaced with (S)-2-(4′-pentenyl) alanine and these side-chains were covalently linked to test the effect of “stapling” an acetylated Ubc12 peptide into a helix (Bird et al. (2008) Methods Enzymol 446:369-386).
(§2) Protein samples were buffer matched by desalting over a NAP-5 column (GE Healthcare) into 50 mM Hepes, 125 mM NaCl, 1 mM BME, pH 7.0 (ITC buffer). Peptides were dissolved by weight to a final concentration of 10 mM in ITC buffer and diluted further in ITC buffer as required for the experiments. […] The peptide ligands (4 mM) were constantly injected (1.5 μl). The interval time between each injection was 3 minutes and the duration of each injection was 3 seconds. […] Peptide ligands (250 μM) were constantly injected (2.5 μl). The interval time between each injection was three minutes and the duration of each injection was 5 seconds. […] The interval time between each injection was 3 minutes and the duration of each injection was 5 seconds. Obtained spectra were evaluated using Origin (V 7.0) to determine heats of binding and Kd values.

For test [2], the target named is T2, hDcn1^P (residues 62 to the C-terminal residue 259 of hDcn1, aka SCCRO or DCUN1D1) (Homo sapiens, UniProt Q96GG9 62-259).
T2 construct: Expressed as a GST fusion in E. coli; GST released by TEV protease; also called DCUN1D1^P; PONY domain of hDcn1
Briefly: ITC; against Acetyl-hUbc12^1-12. As to the method: as §1, §2
(In general: Isothermal titration calorimetry measures the heat released or taken up as one component is titrated into another.)

The target of test [3] is T3, yDcn1^P (potentiating neddylation (PONY) domain of S. cerevisiae Dcn1) (Saccharomyces cerevisiae, UniProt Q12395 70-269).
T3 construct: NEDD8 co-E3; Expressed in E. coli
T3 sequence: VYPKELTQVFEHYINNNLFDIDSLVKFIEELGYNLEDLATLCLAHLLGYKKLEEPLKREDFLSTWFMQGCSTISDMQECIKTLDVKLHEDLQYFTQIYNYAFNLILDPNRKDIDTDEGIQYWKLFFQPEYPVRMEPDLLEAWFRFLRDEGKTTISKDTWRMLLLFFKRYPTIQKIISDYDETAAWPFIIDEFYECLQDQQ
Kind of test: ITC; against Acetyl-yUbc12^1-24. The protocol: as §2

T2 sequence (Q96GG9 62-259): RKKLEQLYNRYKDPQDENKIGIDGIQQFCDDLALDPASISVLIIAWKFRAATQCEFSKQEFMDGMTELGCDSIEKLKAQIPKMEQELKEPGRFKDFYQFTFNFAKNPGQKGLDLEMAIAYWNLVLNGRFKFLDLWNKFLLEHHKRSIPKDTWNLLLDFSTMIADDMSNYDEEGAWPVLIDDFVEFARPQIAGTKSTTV

B1: Acetyl-hUbc12^1-12(5:9Staple) (peptide)
peptide: Ac-MIKL[S5]SLK[S5]QKK-NH2
modifications: staple 5-9
notes: Printed Ac-MIKLXSLKXQKK-NH2, X = 2-(4-pentenyl)alanine; also called stapled helical peptide
Turning to B1, in test [1], the binding result is listed as “no binding”. The “fold improvement of binding over the unstapled peptide” value in test [2] stood at 14 fold.

B2: Formyl-yUbc12^1-24 (peptide)
peptide: For-MLKLRQLQKKKQKENENSSSIQPN-NH2
SMILES: CC[C@H](C)[C@H](NC(=O)[C@H](CO)NC(=O)[C@H](CO)NC(=O)[C@H](CO)NC(=O)[C@H](CC(N)=O)NC(=O)[C@H](CCC(=O)O)NC(=O)[C@H](CC(N)=O)NC(=O)[C@H](CCC(=O)O)NC(=O)[C@H](CCCCN)NC(=O)[C@H](CCC(N)=O)NC(=O)[C@H](CCCCN)NC(=O)[C@H](CCCCN)NC(=O)[C@H](CCCCN)NC(=O)[C@H](CCC(N)=O)NC(=O)[C@H](CC(C)C)NC(=O)[C@H](CCC(N)=O)NC(=O)[C@H](CCCNC(=N)N)NC(=O)[C@H](CC(C)C)NC(=O)[C@H](CCCCN)NC(=O)[C@H](CC(C)C)NC(=O)[C@H](CCSC)NC=O)C(=O)N[C@@H](CCC(N)=O)C(=O)N1CCC[C@H]1C(=O)N[C@@H](CC(N)=O)C(N)=O
notes: Synthetic peptide; also called N-terminally formylated yeast Ubc12 peptide
In the case of B2, in test [3], the “fold change of Kd against the acetylated peptide” value was around 17 fold.
